± gives the uncertainty stated by the source.
B1: Transcriptional repressor p66-beta, residues 415 to 455; numbered along this chain, Q8WXI9 (parent)
chain: VEPFVCAQCRTDFTPHWKQEKNGKILCEQCMTSNQKKALKA

Variants of: B1
Test: abundance fitness (aPCA) (normalised: wild type 0, dead -1); higher = more abundant; growth selection in yeast, the domain comes from the species named
Conditions: Homo sapiens

Variant	abundance fitness
K36D	-0.239 ± 0.14
K36L	-0.329 ± 0.11
K36S	-0.113 ± 0.089
K36N	0.14 ± 0.26
K36P	-0.242 ± 0.14
K36M	-0.078 ± 0.09
K36V	-0.277 ± 0.07
K36F	-0.324 ± 0.17
K36W	-0.256 ± 0.085
K36G	-0.006 ± 0.053
K36R	-0.168 ± 0.068
K36C	-0.275 ± 0.12
K36A	-0.062 ± 0.073
K36E	-0.09 ± 0.082
K36Q	0.105 ± 0.14
K36I	-0.198 ± 0.4
K36T	-0.024 ± 0.075
A38T	0.687 ± 0.36
A38V	-0.04 ± 0.073
A38E	0.167 ± 0.083
A38L	-0.053 ± 0.094
A38W	-0.398 ± 0.12
A38Q	-0.541 ± 0.44

Variant	abundance fitness
A38S	0.066 ± 0.12
A38K	0.059 ± 0.096
A38P	-0.509 ± 0.47
A38Y	-0.228 ± 0.21
A38M	-0.181 ± 0.13
A38D	0.046 ± 0.13
A38G	-0.213 ± 0.057
A38R	-0.19 ± 0.064
A38H	-0.32 ± 0.36
A41S	0.004 ± 0.23
A41E	-0.02 ± 0.27
A41G	0.01 ± 0.075
A41R	-0.071 ± 0.079
A41W	0.002 ± 0.49
A41K	-0.091 ± 0.43
A41V	0.153 ± 0.18
A41C	-0.215 ± 0.2
A41M	-0.247 ± 0.2
A41L	0.211 ± 0.14
N34K	-0.254 ± 0.14
N34L	-0.327 ± 0.092
N34M	-0.371 ± 0.2
N34T	-0.199 ± 0.13

Variant	abundance fitness
N34I	-0.088 ± 0.41
N34Q	-0.083 ± 0.082
N34F	-0.206 ± 0.13
N34V	-0.223 ± 0.065
N34Y	-0.287 ± 0.18
N34P	-0.257 ± 0.11
N34W	-0.67 ± 0.12
N34R	-0.179 ± 0.064
N34H	-0.077 ± 0.1
N34G	-0.156 ± 0.07
K40N	0.079 ± 0.19
K40T	0.071 ± 0.08
K40R	0.285 ± 0.065
K40V	-0.121 ± 0.069
K40M	-0.066 ± 0.18
K40E	0.084 ± 0.089
K40H	-0.125 ± 0.25
K40L	-0.467 ± 0.12
K40P	0.229 ± 0.24
K40W	-0.393 ± 0.11
K40G	0.06 ± 0.064
K40Q	-0.218 ± 0.23
K40S	-0.073 ± 0.11

Variant	abundance fitness
K40C	-0.144 ± 0.15
K40A	-0.025 ± 0.071
Q35A	-0.117 ± 0.063
Q35K	-0.136 ± 0.26
Q35C	-0.218 ± 0.14
Q35M	-0.157 ± 0.18
Q35I	-0.378 ± 0.16
Q35V	-0.339 ± 0.086
Q35Y	0.116 ± 0.43
Q35E	0.025 ± 0.08
Q35R	-0.197 ± 0.067
Q35D	-0.103 ± 0.1
Q35S	-0.087 ± 0.19
Q35P	-0.223 ± 0.12
Q35T	0.018 ± 0.24
Q35L	-0.365 ± 0.1
Q35G	-0.152 ± 0.058
L39D	-0.558 ± 0.3
L39Y	0.577 ± 0.33
L39N	0.54 ± 0.45
L39H	-0.078 ± 0.14
